Measurements from patent publication US20020127673A1 (REGENTS OF THE UNIVERSITY OF MICHIGAN, published 2002).

Assays:
[1] = molecular target: the molecule itself; assay: not described ('our observations')
HA-tagged wild-type Nod2 = molecular target: T1, HA-tagged wild-type Nod2 (human, UniProt Q9HC29 1-1040); assay: co-immunoprecipitation from co-transfected HEK293T cells
T1 construct: Expressed by transfection in HEK293T cells and tested in cell lysates; also called wt Nod2; pcDNA3-Nod2-HA; not shown: HA tag
Excerpt: The CARD motif functions as an effector domain that mediates specific homophilic interaction with downstream CARD-containing molecules (Hofmann et al., Trends Biochem. Sci. 22: 155-156 [1997]).

B1: Nod2 lacking the LRRs (Nod2 1-744) (other)
chain: MGEEGGSASHDEEERASVLLGHSPGCEMCSQEAFQAQRSQLVELLVSGSLEGFESVLDWLLSWEVLSWEDYEGFHLLGQPLSHLARRLLDTVWNKGTWACQKLIAAAQEAQADSQSPKLHGCWDPHSLHPARDLQSHRPAIVRRLHSHVENMLDLAWERGFVSQYECDEIRLPIFTPSQRARRLLDLATVKANGLAAFLLQHVQELPVPLALPLEAATCKKYMAKLRTTVSAQSRFLSTYDGAETLCLEDIYTENVLEVWADVGMAGPPQKSPATLGLEELFSTPGHLNDDADTVLVVGEAGSGKSTLLQRLHLLWAAGQDFQEFLFVFPFSCRQLQCMAKPLSVRTLLFEHCCWPDVGQEDIFQLLLDHPDRVLLTFDGFDEFKFRFTDRERHCSPTDPTSVQTLLFNLLQGNLLKNARKVVTSRPAAVSAFLRKYIRTEFNLKGFSEQGIELYLRKRHHEPGVADRLIRLLQETSALHGLCHLPVFSWMVSKCHQELLLQEGGSPKTTTDMYLLILQHFLLHATPPDSASQGLGPSLLRGRLPTLLHLGRLALWGLGMCCYVFSAQQLQAAQVSPDDISLGFLVRAKGVVPGSTAPLEFLHITFQCFFAAFYLALSADVPPALLRHLFNCGRPGNSPMARLLPTMCIQASEGKDSSVAALLQKAEPHNLQITAAFLAGLLSREHWGLLAECQTSEKALLRHQACARWCLARSLRKHFHSIPPAAPGEAKSVHAMPGFIWLIR
notes: also called Nod2ΔLRR
binding result [1]: binds

B2: caspase-4 (enzyme, UniProt P49662 1-377, looked up)
chain: MAEGNHRKKPLKVLESLGKDFLTGVLDNLVEQNVLNWKEEEKKKYYDAKTEDKVRVMADSMQEKQRMAGQMLLQTFFNIDQISPNKKAHPNMEAGPPESGESTDALKLCPHEEFLRLCKERAEEIYPIKERNNRTRLALIICNTEFDHLPPRNGADFDITGMKELLEGLDYSVDVEENLTARDMESALRAFATRPEHKSSDSTFLVLMSHGILEGICGTVHDEKKPDVLLYDTIFQIFNNRNCLSLKDKPKVIIVQACRGANRGELWVRDSPASLEVASSQSSENLEEDAVYKTHVEKDFIAFCSSTPHNVSWRDSTMGSIFITQLITCFQKYSWCCHLEEVFRKVQQSFETPRAKAQMPTIERLSMTRYFYLFPGN
notes: Construct and tag not described
binding result (HA-tagged wild-type Nod2): no binding

B3: procaspase-9 (enzyme, UniProt P55211 1-416, looked up)
chain: MDEADRRLLRRCRLRLVEELQVDQLWDALLSRELFRPHMIEDIQRAGSGSRRDQARQLIIDLETRGSQALPLFISCLEDTGQDMLASFLRTNRQAAKLSKPTLENLTPVVLRPEIRKPEVLRPETPRPVDIGSGGFGDVGALESLRGNADLAYILSMEPCGHCLIINNVNFCRESGLRTRTGSNIDCEKLRRRFSSLHFMVEVKGDLTAKKMVLALLELAQQDHGALDCCVVVILSHGCQASHLQFPGAVYGTDGCPVSVEKIVNIFNGTSCPSLGGKPKLFFIQACGGEQKDHGFEVASTSPEDESPGSNPEPDATPFQEGLRTFDQLDAISSLPTPSDIFVSYSTFPGFVSWRDPKSGSWYVETLDDIFEQWAHSEDLQSLLLRVANAVSVKGIYKQMPGCFNFLRKKLFFKTS
notes: as for B2
binding result (HA-tagged wild-type Nod2): no binding

B4: Bcl-10 (other, UniProt O95999 1-233, looked up)
chain: MEPTAPSLTEEDLTEVKKDALENLRVYLCEKIIAERHFDHLRAKKILSREDTEEISCRTSSRKRAGKLLDYLQENPKGLDTLVESIRREKTQNFLIQKITDEVLKLRNIKLEHLKGLKCSSCEPFPDGATNNLSRSNSDESNFSEKLRASTVMYHPEGESSTTPFFSTNSSLNLPVLEVGRTENTIFSSTTLPRPGDPGAPPLPPDLQLEEEGTCANSSEMFLPLRSRTVSRQ
notes: as for B2
binding result (HA-tagged wild-type Nod2): no binding
